How the values were obtained:
streptavidin [1] = target: T1, streptavidin (UniProt P22629 P22629:25-183); assay: sandwich print slide capture, 37 C, PBS washes; details: chain copies: 4 inferred
streptavidin [2] = target: T1, streptavidin; assay: bound streptavidin spot on slide also carrying tobramycin spot, 37 C, PBS washes; details: chain copies: 4 inferred; label: Cy3-UTP incorporated
Description: (§1) ˜10 μl spots of 5 mM tobramycin or 16.6 μM streptavadin in PBS were pipetted onto NHS-activated slides (Schott Nexterion Slide H). The slides were incubated at 37° C. in a humidified petri dish for ˜1 hour. The slides were washed ˜3× with ˜5 ml PBST (0.5% Tween) and ˜1× with H₂O. The remainder of the NHS-activated surface was blocked with ethanolamine. ˜5 ml of 50 mM ethanolamine-HCl was used to cover the slides and they were incubated at room temperature for ˜1 hr. The slides were washed ˜3× with ˜5 ml PBST (0.5% Tween), 1× with H₂O and dried in air.
(§2) Following incubation at 37° C. for ˜1-4 hrs, the slides were separated and the in vitro transcription mix was recovered from the slide surface using a pipette. The DNA template slide was washed ˜3× with ˜5 ml PBS, ˜1× with ˜5 ml H₂O and air dried. The RNA-binding slide was washed ˜3× with ˜5 ml PBS, ˜1×˜5 ml H₂O and air dried. Cy-labelled RNA was visualized at 532 nm for Cy3 or 639 nm for Cy5. For unlabelled RNA, the RNA-binding slide was stained by covering the slide with ˜5 ml SYBR gold (Invitrogen, Paisley, UK; 5 μl of SYBR gold in ˜25 ml PBS) for 10 minutes and visualised with a UV transilluminator.

streptavidin [3] = target: T1, streptavidin; assay: sandwich print slide capture, T7 transcription mix, 37 C, PBS washes; details: chain copies: 4 inferred; label: Cy3-UTP incorporated
Description: as §1, §2
(§3) Only the MicASAApt, incorporating the stretpavadin aptamer, bound to the streptavidin RNA-binding slide. […]

streptavidin [4] = target: T1, streptavidin; assay: no-aptamer control, sandwich print slide capture, 37 C, PBS washes; details: chain copies: 4 inferred; label: Cy3-UTP incorporated
Description: as §1, §2, §3

T1 sequence (P22629 25-183, one chain of several): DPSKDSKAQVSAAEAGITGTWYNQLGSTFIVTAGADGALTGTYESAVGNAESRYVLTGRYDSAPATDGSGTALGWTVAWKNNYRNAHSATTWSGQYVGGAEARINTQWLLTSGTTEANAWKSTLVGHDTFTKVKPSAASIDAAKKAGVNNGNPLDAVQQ

B1: Qrr1SAApt RNA (ssRNA)
RNA: GGGUGACCCGCAAGGGUCACCUAGCCAACUGACGUUGUUAGUGAAUAAUCAAUGUUCACAAAUAACAGCCAAUAGACUCAUUCUAUUGGCUAUUUUUUUUUUUUUUUUUUUUUUUUUUUUGUGUGACCGACCAGAAUCAUGCAAGUGCGUAAGAUAGUCGCGGGCCGGGCACACA
Streptavidin [1]; label: Cy5-UTP incorporated
  binding result: binds

B2: M-SSAApt RNA (ssRNA)
RNA: GAAAGACGCGCAUUUGUUAUCAUCAUCCCUGGGAAAGCGAGGCUUUCCCUGGCCACUCACGAGUGGCCUUUUACACACACACACACACACACGCAUGCAUACCGACCAGAAUCAUGCAAGUGCGUAAGAUAGUCGCGGGCCGGGAUGCAUGC
Streptavidin [2]
  binding result: binds

B3: MicASAApt RNA (ssRNA)
RNA: GGGGAAAGACGCGCAUUUGUUAUCAUCAUCCCUGAAUUCAGAGAUGAAAUUUUGGCCACUCACGAGUGGCCUUUUACACACACACACACACACACGCAUGCAUACCGACCAGAAUCAUGCAAGUGCGUAAGAUAGUCGCGGGCCGGGAUGCAUGC
Streptavidin [3]
  binding result: binds

B4: MicA RNA without aptamer (ssRNA)
RNA: GGGGAAAGACGCGCAUUUGUUAUCAUCAUCCCUGAAUUCAGAGAUGAAAUUUUGGCCACUCACGAGUGGCCUUUU
Streptavidin [4]
  binding result: no binding

B5: U1SAApt RNA (ssRNA)
RNA: GGGUAUCCAUUGCACUCCGGAUGCCUUUUUUUUUUUUUUUUUUUUUGUGUGACCGACCAGAAUCAUGCAAGUGCGUAAGAUAGUCGCGGGCCGGGCACACA
Streptavidin [1]; label: Cy3-UTP incorporated
  binding result: binds

Source: US20140087972, “METHOD OF IMMOBILISING RNA ONTO A SURFACE” (UNIVERSITY OF PORTSMOUTH, published 2014)
